Measured values: patent US20160317656A1 (Daiichi Sankyo, published 2016)

Tests used:
[1] = molecular target: T1, human FGFR2 IIIb variant protein (isoform 2: NP_075259), expressed on transfected cells (human, UniProt P21802 22-821); experiment: flow cytometry, hybridoma supernatant on transfected HEK293T cells
T1 construct: also called pcDNA-DEST40-FGFR2 IIIb
T1 chain: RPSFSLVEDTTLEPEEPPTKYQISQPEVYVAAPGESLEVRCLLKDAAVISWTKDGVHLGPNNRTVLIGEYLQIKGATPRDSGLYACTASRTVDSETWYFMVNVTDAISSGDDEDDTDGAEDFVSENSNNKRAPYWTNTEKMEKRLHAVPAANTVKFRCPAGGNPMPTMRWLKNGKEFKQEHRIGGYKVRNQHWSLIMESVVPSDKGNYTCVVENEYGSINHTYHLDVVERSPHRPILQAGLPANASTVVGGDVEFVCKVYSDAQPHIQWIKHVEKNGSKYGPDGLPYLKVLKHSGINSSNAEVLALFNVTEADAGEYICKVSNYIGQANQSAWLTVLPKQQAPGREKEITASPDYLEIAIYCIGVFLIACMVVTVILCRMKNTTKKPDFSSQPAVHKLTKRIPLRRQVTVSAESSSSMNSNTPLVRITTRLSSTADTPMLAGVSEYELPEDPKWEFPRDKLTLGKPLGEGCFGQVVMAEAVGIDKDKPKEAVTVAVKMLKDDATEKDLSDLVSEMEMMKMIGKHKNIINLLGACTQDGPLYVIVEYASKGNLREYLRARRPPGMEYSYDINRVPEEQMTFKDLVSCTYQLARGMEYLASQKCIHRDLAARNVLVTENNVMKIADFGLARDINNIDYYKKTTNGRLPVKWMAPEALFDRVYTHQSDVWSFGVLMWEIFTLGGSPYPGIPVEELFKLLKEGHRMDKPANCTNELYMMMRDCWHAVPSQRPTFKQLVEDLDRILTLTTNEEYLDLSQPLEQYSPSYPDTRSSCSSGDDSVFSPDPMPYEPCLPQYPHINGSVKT
Procedure: (§1) The cell suspension was centrifuged to remove the supernatant. […] The cells were washed twice with PBS containing 5% FBS, then suspended by the addition of Anti-Rat IgG FITC conjugate (manufactured by Sigma-Aldrich Corp.) diluted 320-fold with PBS containing 5% FBS, and left standing at 4° C. for 1 hour. The cells were washed 3 times with PBS containing 5% FBS and then resuspended in PBS containing 5% FBS and 2 μg/ml 7-aminoactinomycin D (manufactured by Molecular Probes, Inc.), followed by detection using a flow cytometer (FC500; manufactured by Beckman Coulter Inc.). The data was analyzed using Flowjo (manufactured by Tree Star Inc.). After removal of 7-aminoactinomycin D-positive dead cells by gating, the FITC fluorescence intensity of live cells was plotted to a histogram to calculate average fluorescence intensity (MFI).

[2] = molecular target: T2, human FGFR2 IIIc variant protein (isoform 1: NP_000132), expressed on transfected cells (human, UniProt P21802 22-821); experiment: as above
T2 construct: also called pcDNA-DEST40-FGFR2 IIIc
Procedure: as §1

[3] = molecular target: T2, human FGFR2 IIIc variant protein …; experiment: flow cytometry on transfected HEK293T cells
Procedure: as §1

[4] = molecular target: T1, human FGFR2 IIIb variant protein …; experiment: Cell-ELISA on transfected 293 alpha cells, antibody 2 ug/ml
Procedure: (§2) The resulting cells were dispensed in an amount of 100 μl/well to a 96-well plate (manufactured by Corning Inc.) and cultured overnight at 37° C. under 5% CO₂ conditions in a DMEM medium containing 10% FBS. The obtained transfected cells were used in the attached state in Cell-ELISA. […] The cells in the wells were washed once with PBS containing 5% FBS. Then, Anti-Human IgG-Peroxidase antibody produced in goat (manufactured by Sigma-Aldrich Corp.) diluted 500-fold with PBS containing 5% FBS was added thereto, and the plate was left standing at 4° C. for 1 hour. The cells in the wells were washed 5 times with PBS containing 5% FBS. Then, an OPD chromogenic solution (OPD solution (o-phenylenediamine dihydrochloride (manufactured by Wako Pure Chemicals Industries, Ltd.) and H₂O₂ dissolved at concentrations of 0.4 mg/ml and 0.6% (v/v), respectively, in 0.05 M trisodium citrate and 0.1 M disodium hydrogen phosphate dodecahydrate, pH 4.5)) was added thereto at a concentration of 100 μl/well. Color reaction was performed with occasional stirring and stopped by the addition of 1 M HCl at a concentration of 100 μl/well. Then, the absorbance was measured at 490 nm using a plate reader (ARVO; PerkinElmer, Inc.).

[5] = molecular target: T2, human FGFR2 IIIc variant protein …; experiment: as above
Procedure: as §2

Row | Binder | binding result [1] | binding result [4] | binding result [5] | also measured
1 | rat anti-human FGFR2 monoclonal antibody FR2-10 (antibody, V domains shown, Used as hybridoma culture supernatant or purified from mouse ascites; also called rat FR2-10 antibody) VH: EVQLVESGGGLVQPGRSLKLSCVASGFRFNDFWMTWIRQAPGKGLEWVASITYTGDNTYYAGSVKGRITISRDNAKSTLYLQMNSLRSEDTATYYCTRDDYGGYSPYYMDAWGQGTSVTVSS VL: DIQMTQSPSSLSAFLGDRVTITCRASQDIGNYLRWFQQKPGKSPRLMIYGATNLANGVPSRFSGSRSGSDYSLTINNLESEDMAIYYCLKHNEYPFTFGSGTKLEIKR | binds | – | – | –
2 | rat anti-human FGFR2 monoclonal antibody FR2-13 (antibody, V domains shown, Used as hybridoma culture supernatant or purified from mouse ascites; also called rat FR2-13 antibody) VH: QVKLLQSGAELVKPGASVKLSCKTSGFTFSTSYMSWLKQVPGPSIEWIGWIYAGDGGTKYNQKFKGKATLTVDKSSSTAYMDLSSLTSEDAAVYFCATDGYGDWFAYWGQGTLVTVSS VL: DIQMTQSPASLSASLGETVTIECRASEDIYSNLAWYQQKPGNSPQLLIYDANILADGVPSRFSGSGSGTQYSLKINSLQSEDVASYFCQQYNNYPPFTFGVGTKLELKR | binds | – | – | binding result [2]: binds
3 | rat anti-human FGFR2 monoclonal antibody FR2-14 (antibody, V domains shown, Used as hybridoma culture supernatant or purified from mouse ascites; also called rat FR2-14 antibody) VH: QVKLLQSGAELVKPGASVKLSCKTSGFTFSTSYMSWLKQVPGPSTEWIGWIYAGDGGTKYNQKFKGKATLTVDKFSSTAYMDLSSLTSEDAAVYFCATDGYGDWFTYWGQGTLVTVSS VL: DIQMTQSPASLSASLGETVTIECRASEDIYSNLAWYQQKPGNSPQLLIYDANILADGVPSRFSGSGSGTQYSLKINSLQSEDVASYFCQQYNNYPPFTFGAGTKLELKR | binds | – | – | binding result [3]: binds
4 | human chimeric anti-FGFR2 antibody cFR2-10 (antibody, human IgG1, V domains shown, Rat FR2-10 variable regions on human IgG1 / kappa constant regions; also called human chimeric FR2-10) VH: EVQLVESGGGLVQPGRSLKLSCVASGFRFNDFWMTWIRQAPGKGLEWVASITYTGDNTYYAGSVKGRITISRDNAKSTLYLQMNSLRSEDTATYYCTRDDYGGYSPYYMDAWGQGTSVTVSS VL: DIQMTQSPSSLSAFLGDRVTITCRASQDIGNYLRWFQQKPGKSPRLMIYGATNLANGVPSRFSGSRSGSDYSLTINNLESEDMAIYYCLKHNEYPFTFGSGTKLEIKR | – | binds | – | –
5 | human chimeric anti-FGFR2 antibody cFR2-13 (antibody, human IgG1, V domains shown, Rat FR2-13 variable regions on human IgG1 / kappa constant regions; also called human chimeric FR2-13) VH: QVKLLQSGAELVKPGASVKLSCKTSGFTFSTSYMSWLKQVPGPSIEWIGWIYAGDGGTKYNQKFKGKATLTVDKSSSTAYMDLSSLTSEDAAVYFCATDGYGDWFAYWGQGTLVTVSS VL: DIQMTQSPASLSASLGETVTIECRASEDIYSNLAWYQQKPGNSPQLLIYDANILADGVPSRFSGSGSGTQYSLKINSLQSEDVASYFCQQYNNYPPFTFGVGTKLELKR | – | binds | binds | –
6 | human chimeric anti-FGFR2 antibody cFR2-14 (antibody, human IgG1, V domains shown, Rat FR2-14 variable regions on human IgG1 / kappa constant regions; also called human chimeric FR2-14) VH: QVKLLQSGAELVKPGASVKLSCKTSGFTFSTSYMSWLKQVPGPSTEWIGWIYAGDGGTKYNQKFKGKATLTVDKFSSTAYMDLSSLTSEDAAVYFCATDGYGDWFTYWGQGTLVTVSS VL: DIQMTQSPASLSASLGETVTIECRASEDIYSNLAWYQQKPGNSPQLLIYDANILADGVPSRFSGSGSGTQYSLKINSLQSEDVASYFCQQYNNYPPFTFGAGTKLELKR | – | binds | binds | –
